Reference: publication PMC9829517

Assays:
[1] = target: Ndd^JamL-LipPKS1* (Moorea producens | not stated)
[2] = target: LipPKS1*
[3] = target: DEBSM6*

Which combined titer of 7 and 8 in E. coli (maximum amount of product) [1] does the source give for JamC(E32T)-Cdd^JamK here?
The combined titer of 7 and 8 in E. coli (maximum amount of product) was 16 mg/L.

What about the combined titer of 7 and 8 in E. coli, against unmodified JamC/LipPKS1* [1] of the same molecule?
Its combined titer of 7 and 8 in E. coli, against unmodified JamC/LipPKS1* is 39 fold.

B1: JamC (E32T) (natural protein)
chain: MENLTVETQNLTSLDNGSIEEKNGPTVDEVQTWLISYLSQLLDLEIEEISTSTSFNRYGLDSSASISLTSDFGDWISKEIDPTILYSYPTIEAMAEHFGA
modifications: holo-ACP, acyl chain loaded by JamA; residue not stated
B1 was tested. Which in vitro product formation assay: formation of 7 against wild-type JamC [2] did it give?
Its in vitro product formation assay: formation of 7 against wild-type JamC is 7 fold.

B2: JamC (E32H) (natural protein)
chain: MENLTVETQNLTSLDNGSIEEKNGPTVDEVQHWLISYLSQLLDLEIEEISTSTSFNRYGLDSSASISLTSDFGDWISKEIDPTILYSYPTIEAMAEHFGA
modifications: holo-ACP, acyl chain loaded by JamA; residue not stated
For B2, which in vitro product formation assay: formation of 7 against wild-type JamC [3] is on record?
Its in vitro product formation assay: formation of 7 against wild-type JamC is 2 fold.
